Measured values from US20140087995A1 (published 2014).
Numbered stars: 1 amine (or outer) side, 2 acyl side, 3 side chain; on linkers, the order of the positions; unused ones are H or OH. Bridge positions count the residues as written; N and C are the ends. Side chains are listed from the residue outwards. Ends that are not written are not given here. * marks the point of attachment. C20 diacid = O=C(O)CCCCCCCCCCCCCCCCCCC(=O)*; γGlu = O=C(O)[C@H](CCC(=O)[*:2])N[*:1]; AEEA = NCCOCCOCC(=O)O

Tests used:
[1] = molecular target: T1, human calcitonin receptor (human, UniProt P30988 25-474); assay: ratio of IC50 at hCTR to IC50 at the human amylin receptor (reference)
T1 construct: whole, on cells; also called hCTR; hCT
T1 sequence (looked up): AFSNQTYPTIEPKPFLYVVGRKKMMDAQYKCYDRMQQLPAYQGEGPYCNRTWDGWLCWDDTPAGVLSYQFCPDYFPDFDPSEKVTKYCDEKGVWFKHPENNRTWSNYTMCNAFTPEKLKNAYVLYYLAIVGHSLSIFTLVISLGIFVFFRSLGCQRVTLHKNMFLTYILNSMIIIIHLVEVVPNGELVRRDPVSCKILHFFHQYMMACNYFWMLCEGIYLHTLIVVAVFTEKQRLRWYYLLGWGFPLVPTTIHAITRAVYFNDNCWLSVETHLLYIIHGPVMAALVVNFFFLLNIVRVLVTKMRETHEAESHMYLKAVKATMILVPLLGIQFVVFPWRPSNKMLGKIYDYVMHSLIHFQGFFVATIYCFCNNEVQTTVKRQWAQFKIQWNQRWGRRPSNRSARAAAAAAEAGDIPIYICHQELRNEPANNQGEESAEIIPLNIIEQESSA
Summary of the method: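 Membranes (35 ng/μL final) + SPA beads, 50 mM Hepes pH 7.4 buffer with 1 mM CaCl2, 5 mM MgCl₂, 0.1% OA, 0.02% Tween20; 120 min, 25° C, shaking; centrifuged, counted; IC₅₀ by one-site binding competition.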

[2] = molecular target: T1, human calcitonin receptor; assay: SPA competition binding, membranes with human calcitonin receptor, displacement of 125I-calcitonin (Assay VII)
Summary of the method: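 BHK hCTR membranes 35 ng/μL + SPA beads 0.05 mg/well; buffer 50 mM Hepes pH 7.4, 1 mM CaCl2, 5 mM MgCl₂, 0.1% OA, 0.02% Tween20. 120 min, 25° C., shaking. Scintillation count; IC50 by one-site binding competition.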

B1: N^α1N^α1-[(4S)-4-carboxy-4-(19-carboxynonadecanoylamino)butanoyl]-[Glu14,Arg17,Pro21,Pro27,Glu35]-h-amylin (peptide)
peptide: {C20 diacid-γGlu}-KCNTATCATQRLAEFLRHSSPNFGAIPSSTNVGSETY-NH2
modifications: disulfide 2-7
SMILES: CC[C@H](C)[C@H](NC(=O)[C@H](C)NC(=O)CNC(=O)[C@H](Cc1ccccc1)NC(=O)[C@H](CC(N)=O)NC(=O)[C@@H]1CCCN1C(=O)[C@H](CO)NC(=O)[C@H](CO)NC(=O)[C@H](Cc1c[nH]cn1)NC(=O)[C@H](CCCNC(=N)N)NC(=O)[C@H](CC(C)C)NC(=O)[C@H](Cc1ccccc1)NC(=O)[C@H](CCC(=O)O)NC(=O)[C@H](C)NC(=O)[C@H](CC(C)C)NC(=O)[C@H](CCCNC(=N)N)NC(=O)[C@H](CCC(N)=O)NC(=O)[C@@H](NC(=O)[C@H](C)NC(=O)[C@@H]1CSSC[C@H](NC(=O)[C@H](CCCCN)NC(=O)CC[C@H](NC(=O)CCCCCCCCCCCCCCCCCCC(=O)O)C(=O)O)C(=O)N[C@@H](CC(N)=O)C(=O)N[C@@H]([C@@H](C)O)C(=O)N[C@@H](C)C(=O)N[C@@H]([C@@H](C)O)C(=O)N1)[C@@H](C)O)C(=O)N1CCC[C@H]1C(=O)N[C@@H](CO)C(=O)N[C@@H](CO)C(=O)N[C@H](C(=O)N[C@@H](CC(N)=O)C(=O)N[C@H](C(=O)NCC(=O)N[C@@H](CO)C(=O)N[C@@H](CCC(=O)O)C(=O)N[C@H](C(=O)N[C@@H](Cc1ccc(O)cc1)C(N)=O)[C@@H](C)O)C(C)C)[C@@H](C)O
notes: also called compound 22
B1 was tested, and the “Ratio hCT/hAmylin binding” value [1] was 12.3 and the IC50 [2] was 9.73 nM.

B2: N^ε1-[2-[2-[2-(19-carboxynonadecanoylamino)ethoxy]ethoxy]acetyl]-[Arg17,Pro21,Pro27]-h-amylin (peptide)
peptide: K([AEEA-C20 diacid])CNTATCATQRLANFLRHSSPNFGAIPSSTNVGSNTY-NH2
modifications: disulfide 2-7; N-terminus assumed
SMILES: CC[C@H](C)[C@H](NC(=O)[C@H](C)NC(=O)CNC(=O)[C@H](Cc1ccccc1)NC(=O)[C@H](CC(N)=O)NC(=O)[C@@H]1CCCN1C(=O)[C@H](CO)NC(=O)[C@H](CO)NC(=O)[C@H](Cc1c[nH]cn1)NC(=O)[C@H](CCCNC(=N)N)NC(=O)[C@H](CC(C)C)NC(=O)[C@H](Cc1ccccc1)NC(=O)[C@H](CC(N)=O)NC(=O)[C@H](C)NC(=O)[C@H](CC(C)C)NC(=O)[C@H](CCCNC(=N)N)NC(=O)[C@H](CCC(N)=O)NC(=O)[C@@H](NC(=O)[C@H](C)NC(=O)[C@@H]1CSSC[C@H](NC(=O)[C@@H](N)CCCCNC(=O)COCCOCCNC(=O)CCCCCCCCCCCCCCCCCCC(=O)O)C(=O)N[C@@H](CC(N)=O)C(=O)N[C@@H]([C@@H](C)O)C(=O)N[C@@H](C)C(=O)N[C@@H]([C@@H](C)O)C(=O)N1)[C@@H](C)O)C(=O)N1CCC[C@H]1C(=O)N[C@@H](CO)C(=O)N[C@@H](CO)C(=O)N[C@H](C(=O)N[C@@H](CC(N)=O)C(=O)N[C@H](C(=O)NCC(=O)N[C@@H](CO)C(=O)N[C@@H](CC(N)=O)C(=O)N[C@H](C(=O)N[C@@H](Cc1ccc(O)cc1)C(N)=O)[C@@H](C)O)C(C)C)[C@@H](C)O
notes: also called compound 43
B2 was tested, and the “Ratio hCT/hAmylin binding” value [1] was 34.7 and the IC50 [2] was 2.64 nM.

B3: N^ε1-[2-[2-[2-[[2-[2-[2-[[(4S)-4-carboxy-4-(19-carboxynonadecanoylamino)butanoyl]amino]ethoxy]ethoxy]acetyl]amino]ethoxy]ethoxy]acetyl]-[Arg17,Pro21,Pro27,Glu35 … (peptide)
peptide: K([AEEA-AEEA-γGlu-C20 diacid])CNTATCATQRLANFLRHSSPNFGAIPSSTNVGSETY-NH2
modifications: disulfide 2-7; N-terminus assumed
SMILES: CC[C@H](C)[C@H](NC(=O)[C@H](C)NC(=O)CNC(=O)[C@H](Cc1ccccc1)NC(=O)[C@H](CC(N)=O)NC(=O)[C@@H]1CCCN1C(=O)[C@H](CO)NC(=O)[C@H](CO)NC(=O)[C@H](Cc1c[nH]cn1)NC(=O)[C@H](CCCNC(=N)N)NC(=O)[C@H](CC(C)C)NC(=O)[C@H](Cc1ccccc1)NC(=O)[C@H](CC(N)=O)NC(=O)[C@H](C)NC(=O)[C@H](CC(C)C)NC(=O)[C@H](CCCNC(=N)N)NC(=O)[C@H](CCC(N)=O)NC(=O)[C@@H](NC(=O)[C@H](C)NC(=O)[C@@H]1CSSC[C@H](NC(=O)[C@@H](N)CCCCNC(=O)COCCOCCNC(=O)COCCOCCNC(=O)CC[C@H](NC(=O)CCCCCCCCCCCCCCCCCCC(=O)O)C(=O)O)C(=O)N[C@@H](CC(N)=O)C(=O)N[C@@H]([C@@H](C)O)C(=O)N[C@@H](C)C(=O)N[C@@H]([C@@H](C)O)C(=O)N1)[C@@H](C)O)C(=O)N1CCC[C@H]1C(=O)N[C@@H](CO)C(=O)N[C@@H](CO)C(=O)N[C@H](C(=O)N[C@@H](CC(N)=O)C(=O)N[C@H](C(=O)NCC(=O)N[C@@H](CO)C(=O)N[C@@H](CCC(=O)O)C(=O)N[C@H](C(=O)N[C@@H](Cc1ccc(O)cc1)C(N)=O)[C@@H](C)O)C(C)C)[C@@H](C)O
notes: also called compound 25
B3 was tested, and the “Ratio hCT/hAmylin binding” value [1] was 56.5 and the IC50 [2] was 43.4 nM.

B4: N^ε1-[2-[2-[2-[[(4S)-4-carboxy-4-(19-carboxynonadecanoylamino)butanoyl]amino]ethoxy]ethoxy]acetyl]-[Arg17,Pro21,Pro27,Glu35]-h-amylin (peptide)
peptide: K([AEEA-γGlu-C20 diacid])CNTATCATQRLANFLRHSSPNFGAIPSSTNVGSETY-NH2
modifications: disulfide 2-7; N-terminus assumed
SMILES: CC[C@H](C)[C@H](NC(=O)[C@H](C)NC(=O)CNC(=O)[C@H](Cc1ccccc1)NC(=O)[C@H](CC(N)=O)NC(=O)[C@@H]1CCCN1C(=O)[C@H](CO)NC(=O)[C@H](CO)NC(=O)[C@H](Cc1c[nH]cn1)NC(=O)[C@H](CCCNC(=N)N)NC(=O)[C@H](CC(C)C)NC(=O)[C@H](Cc1ccccc1)NC(=O)[C@H](CC(N)=O)NC(=O)[C@H](C)NC(=O)[C@H](CC(C)C)NC(=O)[C@H](CCCNC(=N)N)NC(=O)[C@H](CCC(N)=O)NC(=O)[C@@H](NC(=O)[C@H](C)NC(=O)[C@@H]1CSSC[C@H](NC(=O)[C@@H](N)CCCCNC(=O)COCCOCCNC(=O)CC[C@H](NC(=O)CCCCCCCCCCCCCCCCCCC(=O)O)C(=O)O)C(=O)N[C@@H](CC(N)=O)C(=O)N[C@@H]([C@@H](C)O)C(=O)N[C@@H](C)C(=O)N[C@@H]([C@@H](C)O)C(=O)N1)[C@@H](C)O)C(=O)N1CCC[C@H]1C(=O)N[C@@H](CO)C(=O)N[C@@H](CO)C(=O)N[C@H](C(=O)N[C@@H](CC(N)=O)C(=O)N[C@H](C(=O)NCC(=O)N[C@@H](CO)C(=O)N[C@@H](CCC(=O)O)C(=O)N[C@H](C(=O)N[C@@H](Cc1ccc(O)cc1)C(N)=O)[C@@H](C)O)C(C)C)[C@@H](C)O
notes: also called compound 26
In the case of B4, the “Ratio hCT/hAmylin binding” value [1] is reported as 47.5 and the IC50 [2] is reported as 25.3 nM.

B5: N^ε1-[2-[2-[2-[[(4S)-4-carboxy-4-(19-carboxynonadecanoylamino)butanoyl]amino]ethoxy]ethoxy]acetyl]-[Arg17,Pro21,Pro27]-h-amylin (peptide)
peptide: K([AEEA-γGlu-C20 diacid])CNTATCATQRLANFLRHSSPNFGAIPSSTNVGSNTY-NH2
modifications: disulfide 2-7; N-terminus assumed
SMILES: CC[C@H](C)[C@H](NC(=O)[C@H](C)NC(=O)CNC(=O)[C@H](Cc1ccccc1)NC(=O)[C@H](CC(N)=O)NC(=O)[C@@H]1CCCN1C(=O)[C@H](CO)NC(=O)[C@H](CO)NC(=O)[C@H](Cc1c[nH]cn1)NC(=O)[C@H](CCCNC(=N)N)NC(=O)[C@H](CC(C)C)NC(=O)[C@H](Cc1ccccc1)NC(=O)[C@H](CC(N)=O)NC(=O)[C@H](C)NC(=O)[C@H](CC(C)C)NC(=O)[C@H](CCCNC(=N)N)NC(=O)[C@H](CCC(N)=O)NC(=O)[C@@H](NC(=O)[C@H](C)NC(=O)[C@@H]1CSSC[C@H](NC(=O)[C@@H](N)CCCCNC(=O)COCCOCCNC(=O)CC[C@H](NC(=O)CCCCCCCCCCCCCCCCCCC(=O)O)C(=O)O)C(=O)N[C@@H](CC(N)=O)C(=O)N[C@@H]([C@@H](C)O)C(=O)N[C@@H](C)C(=O)N[C@@H]([C@@H](C)O)C(=O)N1)[C@@H](C)O)C(=O)N1CCC[C@H]1C(=O)N[C@@H](CO)C(=O)N[C@@H](CO)C(=O)N[C@H](C(=O)N[C@@H](CC(N)=O)C(=O)N[C@H](C(=O)NCC(=O)N[C@@H](CO)C(=O)N[C@@H](CC(N)=O)C(=O)N[C@H](C(=O)N[C@@H](Cc1ccc(O)cc1)C(N)=O)[C@@H](C)O)C(C)C)[C@@H](C)O
notes: also called compound 41
With B5 the “Ratio hCT/hAmylin binding” value [1] was 49.9 and the IC50 [2] was 21.3 nM.

B6: N^ε1-[2-[2-[2-[[(4S)-4-carboxy-4-(19-carboxynonadecanoylamino)butanoyl]amino]ethoxy]ethoxy]acetyl]-[Arg17,Pro21,Pro27,Pro31]-h-amylin (peptide)
peptide: K([AEEA-γGlu-C20 diacid])CNTATCATQRLANFLRHSSPNFGAIPSSTPVGSNTY-NH2
modifications: disulfide 2-7; N-terminus assumed
SMILES: CC[C@H](C)[C@H](NC(=O)[C@H](C)NC(=O)CNC(=O)[C@H](Cc1ccccc1)NC(=O)[C@H](CC(N)=O)NC(=O)[C@@H]1CCCN1C(=O)[C@H](CO)NC(=O)[C@H](CO)NC(=O)[C@H](Cc1c[nH]cn1)NC(=O)[C@H](CCCNC(=N)N)NC(=O)[C@H](CC(C)C)NC(=O)[C@H](Cc1ccccc1)NC(=O)[C@H](CC(N)=O)NC(=O)[C@H](C)NC(=O)[C@H](CC(C)C)NC(=O)[C@H](CCCNC(=N)N)NC(=O)[C@H](CCC(N)=O)NC(=O)[C@@H](NC(=O)[C@H](C)NC(=O)[C@@H]1CSSC[C@H](NC(=O)[C@@H](N)CCCCNC(=O)COCCOCCNC(=O)CC[C@H](NC(=O)CCCCCCCCCCCCCCCCCCC(=O)O)C(=O)O)C(=O)N[C@@H](CC(N)=O)C(=O)N[C@@H]([C@@H](C)O)C(=O)N[C@@H](C)C(=O)N[C@@H]([C@@H](C)O)C(=O)N1)[C@@H](C)O)C(=O)N1CCC[C@H]1C(=O)N[C@@H](CO)C(=O)N[C@@H](CO)C(=O)N[C@H](C(=O)N1CCC[C@H]1C(=O)N[C@H](C(=O)NCC(=O)N[C@@H](CO)C(=O)N[C@@H](CC(N)=O)C(=O)N[C@H](C(=O)N[C@@H](Cc1ccc(O)cc1)C(N)=O)[C@@H](C)O)C(C)C)[C@@H](C)O
notes: also called compound 49
With B6 the “Ratio hCT/hAmylin binding” value [1] was 10.8 and the IC50 [2] was 12.9 nM.
